One assay deals with human TfR ECD (human). Briefly: SPR. A general note: In SPR one partner is held on a chip, and binding of the other changes the refractive index at the surface.
Assay [1] addresses T1, cynomolgus monkey TfR ECD (Macaca fascicularis).
T1 chain: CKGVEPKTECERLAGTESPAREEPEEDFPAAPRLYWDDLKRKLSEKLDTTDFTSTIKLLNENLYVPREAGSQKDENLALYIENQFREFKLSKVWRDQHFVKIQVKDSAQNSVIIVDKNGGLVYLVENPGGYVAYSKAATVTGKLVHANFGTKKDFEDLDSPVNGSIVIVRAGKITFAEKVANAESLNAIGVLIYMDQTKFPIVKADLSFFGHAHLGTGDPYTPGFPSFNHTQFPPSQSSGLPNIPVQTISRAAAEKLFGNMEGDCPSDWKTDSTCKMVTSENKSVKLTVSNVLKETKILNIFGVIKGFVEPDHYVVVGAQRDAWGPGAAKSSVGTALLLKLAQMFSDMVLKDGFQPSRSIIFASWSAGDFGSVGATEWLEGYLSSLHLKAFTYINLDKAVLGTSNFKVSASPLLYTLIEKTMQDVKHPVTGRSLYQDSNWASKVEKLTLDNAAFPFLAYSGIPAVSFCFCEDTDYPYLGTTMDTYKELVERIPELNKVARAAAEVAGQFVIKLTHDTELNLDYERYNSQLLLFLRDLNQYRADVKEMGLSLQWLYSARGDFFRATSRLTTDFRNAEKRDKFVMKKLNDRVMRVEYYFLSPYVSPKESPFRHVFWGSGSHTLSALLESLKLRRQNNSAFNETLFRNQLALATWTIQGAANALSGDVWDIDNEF
Briefly: SPR.

B1: hTfR affinity peptide 1 (designed binder)
chain: QVQLVESGGGLVHPGGSLRLSCVASGTSFSLNVVTWYRQALGKQREWVATINQSEAPTYADSVKGRFTISRDGAKNTVYLQMNSLVTEDTALYYCYDRYNEIRGQGTQVTVSS
Turning to B1, the Kd (in general, the concentration at which binding is half-saturated) was determined as 16.5 nM with human TfR ECD and 17.6 nM in assay [1].

B2: hTfR affinity peptide 2 (designed binder)
chain: QVQLVESGGGLVHPGGSLSLSCAASGTSFSFNTVTWYRQALGKQREWVATINGSGAPTYADSVKGRFTISRDGAKNTVYLLMNSLVTEDTALYYCYDRYNEIRGQGTQVTVSS
With B2, the Kd in the assay with human TfR ECD came to 16.5 nM; in assay [1], 17.6 nM.

The record behind these values is patent US20260285942 (published 2026).
